{"source": "patent US20100291188A1", "about": "“Periostin Inhibitory Compositions for Myocardial Regeneration, Methods of Delivery, and Methods of Using Same” (MUSC FOUNDATION FOR RESEARCH DEVELOPMENT, priority 2008, published 2010)", "molecules": {"B1": {"name": "purified periostin protein: purified periostin protein, 90 kDa secreted matricellular protein; added to culture medium or coated on dishes (protein, UniProt Q15063 22-836, looked up)", "Periostin": "NNHYDKILAHSRIRGRDQGPNVCALQQILGTKKKYFSTCKNWYKKSICGQKTTVLYECCPGYMRMEGMKGCPAVLPIDHVYGTLGIVGATTTQRYSDASKLREEIEGKGSFTYFAPSNEAWDNLDSDIRRGLESNVNVELLNALHSHMINKRMLTKDLKNGMIIPSMYNNLGLFINHYPNGVVTVNCARIIHGNQIATNGVVHVIDRVLTQIGTSIQDFIEAEDDLSSFRAAAITSDILEALGRDGHFTLFAPTNEAFEKLPRGVLERIMGDKVASEALMKYHILNTLQCSESIMGGAVFETLEGNTIEIGCDGDSITVNGIKMVNKKDIVTNNGVIHLIDQVLIPDSAKQVIELAGKQQTTFTDLVAQLGLASALRPDGEYTLLAPVNNAFSDDTLSMDQRLLKLILQNHILKVKVGLNELYNGQILETIGGKQLRVFVYRTAVCIENSCMEKGSKQGRNGAIHIFREIIKPAEKSLHEKLKQDKRFSTFLSLLEAADLKELLTQPGDWTLFVPTNDAFKGMTSEEKEILIRDKNALQNIILYHLTPGVFIGKGFEPGVTNILKTTQGSKIFLKEVNDTLLVNELKSKESDIMTTNGVIHVVDKLLYPADTPVGNDQLLEILNKLIKYIQIKFVRGSTFKEIPVTVYTTKIITKVVEPKIKVIEGSLQPIIKTEGPTLTKVKIEGEPEFRLIKEGETITEVIHGEPIIKKYTKIIDGVPVEITEKETREERIITGPEIKYTRISTGGGETEETLKKLLQEEVTKVTKFIEGGDGHLFEDEEIKRLLQGDTPVRKLQANKKVQGSRRRLREGRSQ"}}, "key": {"[1]": {"system": "Mesenchyme from periostin null mice", "experiment": "Hanging drop culture of periostin null mesenchyme with purified periostin protein, Western analysis for collagen I", "type": "cell-based, mouse", "conditions": "7 days, purified periostin protein 10 µg/ml vs PBS", "description": "FIG. C-4: Periostin regulates collagen I synthesis. Mesenchyme from periostin null mice were placed in hanging drop cultures and incubated with either purified periostin protein (10 µg/ml) or PBS. Mesenchyme from wild-type mice were used as control tissues. After 7 days, tissues were analyzed for periostin and collagen expression by Western analysis. […] Actin is used for protein normalization (B) Graphical representation of Western analyses presented in panel A obtained from densitometric analyses using NIH image software. Values obtained were compared against wild-type values (baseline) and represented as relative percent change. * denotes p<0.05\nTo further determine the potential for periostin to affect fibroblast differentiation, we compared mesenchymal cells isolated from periostin null and wild-type mice, in addition to performing “rescue” experiments. For this study, we isolated atrioventricular mesenchyme from E12.5 periostin null and wild-type mice and placed them in hanging drop cultures for 7 days. In addition, purified protein was added to a subset of the hanging drops to determine the ability to rescue any defects observed in marker expression. After 7 days, the hanging drops were collected, lysed and Western analyses were performed for the fibroblast markers collagen I[…]I, and I[…]2. […]"}, "wild-type fibroblast": {"system": "wild-type fibroblast", "experiment": "Fibroblast migration on periostin and collagen coated dishes", "type": "cell-based", "conditions": "varying amounts of periostin and collagen coated on dishes", "description": "FIG. D-2: Varying amounts of periostin and collagen coated dishes were assayed for their ability to promote wild-type fibroblast migration.\nA final additional approach to be considered for this aim involves alternative migration assays. Scratch assays are a standard two-dimensional in vitro “wounding” assay whereby a small scratch is introduced into a confluent monolayer of cells and the time the cells take to invade and fill in the empty area provides a measure of migration^78. Thus, these assays will be employed to assess the 2-dimensional migratory capabilities of the “unidentified cells”. The time it takes for “unidentified” cells to fill the gap will be compared to that of wild-type cardiac fibroblasts. Preliminary data on fibroblasts has been previously performed and serves as a benchmark for comparison (FIG. D-2). This 2-D culture assay will serve as a nice complement to the 3-D migration and invasion assay proposed in Experiment 2."}}, "note": "“Also recorded” adds a separate entry of the source."}
{"molecule": "B1", "values": [{"measurement": "collagen I expression (collagen Iα1 and Iα2, Western analysis)", "setting": "[1]", "value": "rescued; also recorded: induces expression of collagen I[…]1 and I[…]2"}, {"measurement": "collagen I expression (collagen Iα1 and Iα2, Western analysis)", "setting": "[1]; listed as purified protein", "value": "reactivation of collagen isoforms"}, {"measurement": "fibroblast migration", "setting": "wild-type fibroblast", "value": "titrating affect of periostin in combination with collagen to stimulate migration"}]}
